From patent US20110046070A1, “GENE EXPRESSION INHIBITOR SELECTIVE FOR MATRIX METALLOPROTEINASE-9 GENE” (priority 2008, published 2011)

Experiment: Tissue distribution of fluorescently labeled polyamide
Assay type: in vivo
Settings: 7.5 mg/kg tail vein, mice
Protocol: On day 1 (24 hours), day 6 and day 21 after the intravenous injection, the mice were dissected, and each tissue of the livers, the spleens and the kidneys was collected and prepared into frozen sections, which were then fixed in 4% paraformaldehyde for 30 minutes.

## CN(C)CCCNC(=O)CCNC(=O)c1cc(NC(=O)c2cc(NC(=O)CCNC(=O)c3nc(NC(=O)c4nc(NC(=O)CCCNC(=O)c5cc(NC(=O)c6cc(NC(=O)CCNC(=O)c7cc(NC(=O)c8cc(NC(=O)CCNC(=S)Nc9ccc(-c%10c%11ccc(=O)cc-%11oc%11cc(O)ccc%10%11)c(C(=O)O)c9)cn8C)cn7C)cn6C)cn5C)cn4C)cn3C)cn2C)cn1C [HMMP9NFκβ-FITC]
After 1 day
  incorporation in the nuclei of liver and kidney cells: A large number
  incorporation in the nuclei of spleen cells: also incorporated in the nuclei of spleen cells
After 6 days
  FITC fluorescence in tissue: strong FITC fluorescence was observed
After 21 days
  FITC fluorescence intensity in the cells of each tissue: remarkably attenuated
